# In patent US20230340055A1 (published 2023):
# T1: IL-2Rαβγ (trimeric high-affinity IL-2 receptor), human, on cells (human, UniProt P01589 22-272; P14784 27-551; P31785 23-369)
# T1 sequence (looked up) 1: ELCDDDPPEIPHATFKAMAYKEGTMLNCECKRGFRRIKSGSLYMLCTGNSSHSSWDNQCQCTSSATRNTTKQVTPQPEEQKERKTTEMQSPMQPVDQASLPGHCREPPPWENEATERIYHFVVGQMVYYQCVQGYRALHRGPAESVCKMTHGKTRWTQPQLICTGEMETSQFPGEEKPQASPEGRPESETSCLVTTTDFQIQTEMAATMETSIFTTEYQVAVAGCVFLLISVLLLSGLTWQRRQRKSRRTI
# T1 sequence (looked up) 2: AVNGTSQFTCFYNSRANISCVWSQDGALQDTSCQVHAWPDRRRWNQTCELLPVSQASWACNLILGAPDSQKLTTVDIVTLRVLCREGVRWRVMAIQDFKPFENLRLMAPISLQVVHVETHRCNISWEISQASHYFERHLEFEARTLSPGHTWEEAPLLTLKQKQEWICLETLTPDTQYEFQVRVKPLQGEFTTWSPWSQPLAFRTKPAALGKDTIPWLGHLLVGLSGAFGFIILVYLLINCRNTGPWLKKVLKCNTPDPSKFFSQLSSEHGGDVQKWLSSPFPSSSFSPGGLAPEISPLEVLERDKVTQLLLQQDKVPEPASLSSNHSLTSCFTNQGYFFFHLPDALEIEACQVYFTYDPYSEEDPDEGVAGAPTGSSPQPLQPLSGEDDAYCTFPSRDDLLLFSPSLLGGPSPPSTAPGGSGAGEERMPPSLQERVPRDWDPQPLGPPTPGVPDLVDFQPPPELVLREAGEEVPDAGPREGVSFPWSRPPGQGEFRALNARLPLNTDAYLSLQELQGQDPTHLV
# T1 sequence (looked up) 3: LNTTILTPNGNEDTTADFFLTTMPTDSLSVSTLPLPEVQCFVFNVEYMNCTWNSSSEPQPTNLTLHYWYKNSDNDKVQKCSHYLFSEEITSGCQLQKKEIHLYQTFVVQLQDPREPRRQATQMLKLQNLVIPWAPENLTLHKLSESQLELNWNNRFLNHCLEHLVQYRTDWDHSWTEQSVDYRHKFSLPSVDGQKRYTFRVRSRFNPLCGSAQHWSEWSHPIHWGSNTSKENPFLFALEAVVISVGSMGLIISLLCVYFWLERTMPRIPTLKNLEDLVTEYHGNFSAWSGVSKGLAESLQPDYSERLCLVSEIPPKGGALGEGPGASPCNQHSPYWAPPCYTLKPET
# T2: Human IL-2 Receptor alpha, Fc-Tag (Symansis, New Zealand) (human, UniProt P01589 22-240)
# T2 construct: extracellular domain; Bought reagent; also called IL-2Rα; IL-2Rα-Fc; not shown: Fc-Tag (captured by anti-human IgG (Fc) antibody)
# T2 sequence (looked up): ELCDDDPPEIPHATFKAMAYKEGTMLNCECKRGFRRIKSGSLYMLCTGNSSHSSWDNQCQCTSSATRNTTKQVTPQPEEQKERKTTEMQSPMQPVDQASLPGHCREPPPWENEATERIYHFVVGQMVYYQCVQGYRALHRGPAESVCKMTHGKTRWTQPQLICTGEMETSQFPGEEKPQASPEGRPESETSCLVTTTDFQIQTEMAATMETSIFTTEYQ
# What was measured:
# [1] = molecular target: T1, IL-2Rαβγ (trimeric high-affinity IL-2 …); experiment: cell-based or functional assay
# [2] = molecular target: T2, Human IL-2 Receptor alpha, Fc-Tag …; experiment: calculated from the SPR KD values of Example 15; reference protein 5a
# Experimental: (§1) For the determination of binding kinetics to IL-2Rα the following chip preparation was used: Human IL-2 Receptor alpha, Fc-Tag (Symansis, New Zealand) was diluted in HBS-EP running buffer (GE Healthcare, 10 mM HEPES, 150 mM NaCl, 3 mM EDTA, 0.05% Surfactant P20, pH 7.4) to approx. 0.25 µg/mL and immobilized at a flow rate of 50 µL/min for 60 s to achieve 90 - 110 response units (RU).
# as §1, with “IL-2Rβ” for “IL-2Rα”, “beta,” for “alpha,”, “around” for “approx.”, “300” for “90”, “330” for “110”
# (50 µL/min flow rate, 60 s contact time, 300 s dissociation time). Double referenced data (subtracted data from the reference flow cell and the buffer only samples) was analysed via a kinetic fit (1:1 binding model) to determine KD, kₐ and kd. Regeneration after each cycle was performed with 3 M MgCl₂.
binder,measurement,setting,value
"protein 6 (ligand, glycosylated (same sequence with the N-glycosylation motif FGNST as protein 1f); glycan sites not analysed separately for protein 6) APTSSSTKKTQLQLEHLLLDLQMILNGINNYKNPKLTFGNSTKFYMPKKATELKHLQCLEEELKPLEEVLNLAQSKNFHLRPRDLISNINVIVLELKGSETTFMCEYADETATIVEFLNRWITFSQSIISTLT","EC50, pSTAT5 MFI, Treg (human PBMCs)",[1],38 ng/mL
same,ratio of Ratio protein 6 to Ratio protein 5a (KD to IL-2Rα / KD to IL-2Rβ),[2],> 100
